Source: patent publication US20210386788A1, “ER TUNABLE PROTEIN REGULATION” (Obsidian Therapeutics, Inc., priority 2018, published 2021)

Columns and labels:
Type in all cases: cell-based, human
Nalm6 target cells [1] = experiment: Nalm6 target cell killing by CAR T cells (Incucyte)
Description: (§1) Primary T cells were activated with CD3/CD28 Dynabeads at 3:1 Bead: Cell ratio overnight, then transduced with OT-001792 lentivirus. On day 7 of the T cell expansion, CAR expression was measured by flow cytometry with CD19-Fc on cells treated overnight in the presence (34% positive) or absence (0.6% positive) of 1 μM Bazedoxifene. After the T cells had expanded for 10 days, they were mixed with CD19-expressing Nalm6 target cells at ratios of 10:1 and 2.5:1 total T cells:Nalm6 cells and cultured for 3 days.
(§2) To measure Interferon gamma production, T cells transduced with the constructs OT-00179, OT-002158, OT-001407 or empty vector were thawed and co-cultured with Nalm6 target cells (stably expressing NucRed®) at different ratios of transduced T cells (herein referred to as the Effector) and Nalm 6 cells (herein referred to as the Target). Target cell viability was determined by measuring cellular fluorescence over time using the Incucyte instrument. Data presented in Table 22 are expressed as Nalm6 cell area at representative time points (0, 24, and 42 hour (hr)). The lower the numerical value of the Nalm6 area, the higher the cytotoxicity effected by the Effector cells.

primary T cells = experiment: CD19 CAR expression on lentivirus transduced primary T cells (flow cytometry with CD19-Fc); details: for CAR expression, % positive: day 7 of T cell expansion
Description: as §1
Primary T cells were activated with CD3/CD28 Dynabeads at 3:1 Bead:Cell ratio overnight, then transduced with lentiviruses derived from the indicated constructs. On day 7 or day 9 (as indicated) of the T cell expansion, CAR expression was measured by flow cytometry with CD19-Fc on cells incubated for 24 hours with 1 μM Bazedoxifene or 1 μM Raloxifene or DMSO. […] At day 9 the basal percentage of CAR positive cells for the same constructs was even lower at approximately 20% i.e. in the absence of ligand and about 32-45% in the presence of either ligand. […] This was true at both day 7 and day 9.
Human donor T cells were thawed and activated overnight in the presence of CD3/CD28 Dynabeads at 3:1 bead:cell ratio, then transduced with lentivirus related to OT-002158, or OT-001786. Cells were expanded over the course of 10 days, with fresh media added to maintain cells at around 0.5×10^6 cells/mL. On day 9, an aliquot of cells was removed, and treated with 1 μM Bazedoxifene overnight or DMSO vehicle control, then stained with 10 μg/mL CD19-Fc. Histograms showing CAR expression from a Live Singlet cell gate were plotted.
Human donor T cells were thawed and activated overnight in the presence of CD3/CD28 Dynabeads at 3:1 bead:cell ratio, then transduced with lentivirus from the constructs. Cells were expanded over the course of 10 days, and fresh media was added to maintain cells around 0.5×10^6 cells/ml. On day 9, an aliquot of cells were removed, treated with 1 μM Bazedoxifene overnight, then stained with 10 μg/mL CD19-Fc. Histograms showing CAR expression from a Live Singlet cell gate were plotted. The data are shown in Table 19 and Table 20 where data are presented as % CAR positive cells, where SR indicates stabilization ration.
T cells were transduced with OT-00179, OT-002158, OT-001407 or empty vector and expanded as described herein, frozen on day 10. To confirm the expression and function of this large scale expansion for in vivo use, cells were thawed and incubated overnight in the presence of CD3/28 beads (1:1 bead:cell ratio) and with or without 1 μM Bazedoxifene. FACS staining with 1 μg/mL CD19-Fc was performed to measure the surface expression of CD19-CAR. The data are provided in Table 21 as the percentage CAR positive cells.

Nalm6 target cells [2] = experiment: Interferon gamma in T cell/Nalm6 co-culture supernatants (MSD); details: co-culture supernatant at 42 hours
Description: as §2
Cell culture supernatants were collected from the T cell/Nalm6 cytotoxicity assay co-cultures at 42 hours. Interferon gamma was measured by MSD and is described in Table 23.

B1: OT-001792: CD8α leader; Linker (RS); ER (L384M, M421G, G521R, Y537S); Furin cleavage site; CD19 CAR; SEQ ID NO. 406 (protein)
chain: MALPVTALLLPLALLLHAARPRSSLALSLTADQMVSALLDAEPPILYSEYDPTRPFSEASMMGLLTNLADRELVHMINWAKRVPGFVDLTLHDQVHLLECAWMEILMIGLVWRSMEHPGKLLFAPNLLLDRNQGKCVEGGVEIFDMLLATSSRFRMMNLQGEEFVCLKSIILLNSGVYTFLSSTLKSLEEKDHIHRVLDKITDTLIHLMAKAGLTLQQQHQRLAQLLLILSHIRHMSNKRMEHLYSMKCKNVVPLSDLLLEMLDAHRLGTGAEDPRPSRKRRSLGDVGEIVMTQSPATLSLSPGERATLSCRASQDISKYLNWYQQKPGQAPRLLIYHTSRLHSGIPARFSGSGSGTDYTLTISSLQPEDFAVYFCQQGNTLPYTFGQGTKLEIKGGGGSGGGGSGGGGSQVQLQESGPGLVKPSETLSLTCTVSGVSLPDYGVSWIRQPPGKGLEWIGVIWGSETTYYSSSLKSRVTISKDNSKNQVSLKLSSVTAADTAVYYCAKHYYYGGSYAMDYWGQGTLVTVSSTTTPAPRPPTPAPTIASQPLSLRPEACRPAAGGAVHTRGLDFACDIYIWAPLAGTCGVLLLSLVITLYCKRGRKKLLYIFKQPFMRPVQTTQEEDGCSCRFPEEEEGGCELRVKFSRSADAPAYKQGQNQLYNELNLGRREEYDVLDKRRGRDPEMGGKPRRKNPQEGLYNELQKDKMAEAYSEIGMKGERRRGKGHDGLYQGLSTATKDTYDALHMQALPPR
Nalm 6 area, total target area (Nalm6 target cells [1]; 0 hr, Effector:Target 0.3:1, + 1 μM Bazedoxifene): 57617.98 | Nalm 6 area, total target area (Nalm6 target cells [1]; 0 hr, Effector:Target 0.3:1, no ligand): 71711.59 | Nalm 6 area, total target area (Nalm6 target cells [1]; 0 hr, Effector:Target 1:1, + 1 μM Bazedoxifene): 67768.82 | Nalm 6 area, total target area (Nalm6 target cells [1]; 0 hr, Effector:Target 1:1, no ligand): 62673.31 | Nalm 6 area, total target area (Nalm6 target cells [1]; 0 hr, Effector:Target 3:1, + 1 μM Bazedoxifene): 54788.54 | Nalm 6 area, total target area (Nalm6 target cells [1]; 0 hr, Effector:Target 3:1, no ligand): 60708.63 | Nalm 6 area, total target area (Nalm6 target cells [1]; 0 hr, Effector:Target 10:1, + 1 μM Bazedoxifene): 55572.92 | Nalm 6 area, total target area (Nalm6 target cells [1]; 0 hr, Effector:Target 10:1, no ligand): 57172.20 | Nalm 6 area, total target area (Nalm6 target cells [1]; 24 hr, Effector:Target 0.3:1, + 1 μM Bazedoxifene): 94217.60 | Nalm 6 area, total target area (Nalm6 target cells [1]; 24 hr, Effector:Target 0.3:1, no ligand): 123175.80 | Nalm 6 area, total target area (Nalm6 target cells [1]; 24 hr, Effector:Target 1:1, + 1 μM Bazedoxifene): 103535.70 | Nalm 6 area, total target area (Nalm6 target cells [1]; 24 hr, Effector:Target 1:1, no ligand): 104433.20 | Nalm 6 area, total target area (Nalm6 target cells [1]; 24 hr, Effector:Target 3:1, + 1 μM Bazedoxifene): 67794.87 | Nalm 6 area, total target area (Nalm6 target cells [1]; 24 hr, Effector:Target 3:1, no ligand): 105474.34 | Nalm 6 area, total target area (Nalm6 target cells [1]; 24 hr, Effector:Target 10:1, + 1 μM Bazedoxifene): 40606.37 | Nalm 6 area, total target area (Nalm6 target cells [1]; 24 hr, Effector:Target 10:1, no ligand): 93991.37 | Nalm 6 area, total target area (Nalm6 target cells [1]; 42 hr, Effector:Target 0.3:1, + 1 μM Bazedoxifene): 143903.95 | Nalm 6 area, total target area (Nalm6 target cells [1]; 42 hr, Effector:Target 0.3:1, no ligand): 197082.75 | Nalm 6 area, total target area (Nalm6 target cells [1]; 42 hr, Effector:Target 1:1, + 1 μM Bazedoxifene): 133539.50 | Nalm 6 area, total target area (Nalm6 target cells [1]; 42 hr, Effector:Target 1:1, no ligand): 171919.20 | Nalm 6 area, total target area (Nalm6 target cells [1]; 42 hr, Effector:Target 3:1, + 1 μM Bazedoxifene): 58548.97 | Nalm 6 area, total target area (Nalm6 target cells [1]; 42 hr, Effector:Target 3:1, no ligand): 180465.55 | Nalm 6 area, total target area (Nalm6 target cells [1]; 42 hr, Effector:Target 10:1, + 1 μM Bazedoxifene): 25302.71 | Nalm 6 area, total target area (Nalm6 target cells [1]; 42 hr, Effector:Target 10:1, no ligand): 156073.75 | CD19-CAR mediated target cell killing (Nalm6 target cells [1]; T cells:Nalm6 10:1 and 2.5:1, 3 days, with or without 1 μM Bazedoxifene): observed specifically in the presence of 1 μM Bazedoxifene | ligand dependent regulation of CAR expression (in words) (primary T cells; 1 μM Bazedoxifene or Raloxifene versus DMSO, day 7 or day 9): did not show any ligand dependent regulation of CAR expression | % CAR positive cells, Bazedoxifene (primary T cells; Table 21, thawed cells, overnight with CD3/28 beads, 1 μM Bazedoxifene, 1 μg/mL CD19-Fc): 39.6% | % CAR positive cells, Vehicle (primary T cells; Table 21, thawed cells, overnight with CD3/28 beads, without Bazedoxifene, 1 μg/mL CD19-Fc): 0.39% | CAR expression, % positive (primary T cells; overnight in the absence of Bazedoxifene): 0.6% | CAR expression, % positive (primary T cells; overnight in the presence of 1 μM Bazedoxifene): 34% | IFN gamma levels, 1 μM Bazedoxifene (Nalm6 target cells [2]; 1 μM Bazedoxifene): 7079.60 pg/mL | IFN gamma levels, Vehicle (Nalm6 target cells [2]; vehicle): 91.09 pg/mL
